From publication PMC9482650, “Quantitative fragmentomics allow affinity mapping of interactomes” (Nature Communications, 2022)

T1: APBA1_2, Q02410
T1 sequence (Q02410 742-832, limits assumed, looked up): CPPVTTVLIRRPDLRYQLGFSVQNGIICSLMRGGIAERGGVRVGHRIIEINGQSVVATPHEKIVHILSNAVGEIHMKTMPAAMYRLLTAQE

T2: DFNB31_2, Q9P202
T2 sequence (Q9P202 274-371, limits assumed, looked up): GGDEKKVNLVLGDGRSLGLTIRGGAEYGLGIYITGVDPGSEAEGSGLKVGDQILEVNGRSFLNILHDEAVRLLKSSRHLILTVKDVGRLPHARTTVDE

T3: DLG3_3, Q92796
T3 sequence (Q92796 374-475, limits assumed, looked up): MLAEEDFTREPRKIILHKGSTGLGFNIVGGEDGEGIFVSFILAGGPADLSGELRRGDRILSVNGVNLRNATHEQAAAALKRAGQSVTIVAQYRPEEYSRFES

T4: NHERF3_4, Q5T2W1
T4 sequence (Q5T2W1 373-468, limits assumed, looked up): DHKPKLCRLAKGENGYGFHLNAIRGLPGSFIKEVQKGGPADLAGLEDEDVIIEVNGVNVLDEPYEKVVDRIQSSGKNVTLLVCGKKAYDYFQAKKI

T5: RADIL, Q96JH8
T5 sequence (Q96JH8 971-1071, limits assumed, looked up): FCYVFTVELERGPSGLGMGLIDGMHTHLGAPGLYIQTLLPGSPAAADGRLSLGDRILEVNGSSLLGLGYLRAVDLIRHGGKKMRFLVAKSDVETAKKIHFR

T6: GRIP1_4, Q9Y3R0
T6 sequence (Q9Y3R0 467-571, limits assumed, looked up): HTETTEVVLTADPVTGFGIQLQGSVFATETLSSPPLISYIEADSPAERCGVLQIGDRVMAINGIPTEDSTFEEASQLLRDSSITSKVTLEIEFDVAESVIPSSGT

T7: APBA1_1, Q02410
T7 sequence (Q02410 651-752, limits assumed, looked up): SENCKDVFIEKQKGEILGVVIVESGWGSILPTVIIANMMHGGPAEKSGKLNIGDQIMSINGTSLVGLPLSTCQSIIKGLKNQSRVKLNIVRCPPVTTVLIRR

T8: SNTG2, Q9NY99
T8 sequence (Q9NY99 68-166, limits assumed, looked up): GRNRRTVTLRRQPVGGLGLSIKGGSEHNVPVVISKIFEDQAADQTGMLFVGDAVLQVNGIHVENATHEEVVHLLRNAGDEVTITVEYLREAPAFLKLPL

T9: GRIP1_7, Q9Y3R0
T9 sequence (Q9Y3R0 999-1096, limits assumed, looked up): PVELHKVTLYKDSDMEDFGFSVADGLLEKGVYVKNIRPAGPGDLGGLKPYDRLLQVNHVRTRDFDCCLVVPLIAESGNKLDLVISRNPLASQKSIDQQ

T10: PDZD2_2, O15018
T10 sequence (O15018 329-429, limits assumed, looked up): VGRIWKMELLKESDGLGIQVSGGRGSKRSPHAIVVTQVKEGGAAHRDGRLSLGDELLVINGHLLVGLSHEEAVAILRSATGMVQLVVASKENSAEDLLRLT

T11: MPP7, Q5T2T1
T11 sequence (Q5T2T1 134-230, limits assumed, looked up): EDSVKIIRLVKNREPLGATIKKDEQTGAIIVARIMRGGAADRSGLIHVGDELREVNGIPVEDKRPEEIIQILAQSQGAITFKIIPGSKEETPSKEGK

B1: ADGRG1, Q9Y653 (peptide)
chain: SSGSTSSSRI
B2: SEMA4C, Q9C0C4 (peptide)
chain: PDSNPEESSV
B3: CLDN9, O95484 (peptide)
chain: ASGLDKRDYV
B4: KCNT1, Q5JUK3 (peptide)
chain: NPETRDETQL
B5: GAB3, Q8WWW8 (peptide)
chain: EWTDERQSKV

Legend:
Experiment in all cases: holdup assay
Design in all cases: key: below the threshold = too weak to quantify, mostly under pKd 3.1 to 4
Conditions in all cases: plain residues with an end cap or a label only (N-terminal biotin on a linker: ado-ado)
MAGI3_2, Q5TCQ9 = target: MAGI3_2, Q5TCQ9
APBA1_2, Q02410 = target: T1, APBA1_2, Q02410
DFNB31_2, Q9P202 = target: T2, DFNB31_2, Q9P202
SCRIB_2, Q14160 = target: SCRIB_2, Q14160
DLG3_3, Q92796 = target: T3, DLG3_3, Q92796
FRMPD2_3, Q68DX3 = target: FRMPD2_3, Q68DX3
TJP1_2, Q07157 = target: TJP1_2, Q07157
NHERF3_4, Q5T2W1 = target: T4, NHERF3_4, Q5T2W1
Inadl_5, Q8NI35 = target: Inadl_5, Q8NI35
LNX1_3, Q8TBB1 = target: LNX1_3, Q8TBB1
LNX1_2, Q8TBB1 = target: LNX1_2, Q8TBB1
HTRA2, O43464 = target: HTRA2, O43464
RADIL, Q96JH8 = target: T5, RADIL, Q96JH8
GRIP1_4, Q9Y3R0 = target: T6, GRIP1_4, Q9Y3R0
APBA1_1, Q02410 = target: T7, APBA1_1, Q02410
DLG1_3, Q12959 = target: DLG1_3, Q12959
SNTG2, Q9NY99 = target: T8, SNTG2, Q9NY99
Inadl_3, Q8NI35 = target: Inadl_3, Q8NI35
DLG1_2, Q12959 = target: DLG1_2, Q12959
GRIP1_7, Q9Y3R0 = target: T9, GRIP1_7, Q9Y3R0
Inadl_6, Q8NI35 = target: Inadl_6, Q8NI35
AHNAK1, Q09666 = target: AHNAK1, Q09666
SNX27, Q96L92 = target: SNX27, Q96L92
TJP1_3, Q07157 = target: TJP1_3, Q07157
PDZD2_2, O15018 = target: T10, PDZD2_2, O15018
Inadl_2, Q8NI35 = target: Inadl_2, Q8NI35
MPP7, Q5T2T1 = target: T11, MPP7, Q5T2T1

Sequence of AHNAK1, Q09666 (Q09666 4-100): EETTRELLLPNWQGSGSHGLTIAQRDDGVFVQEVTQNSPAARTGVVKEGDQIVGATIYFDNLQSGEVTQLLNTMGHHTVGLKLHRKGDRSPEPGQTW
Sequence of SCRIB_2, Q14160 (Q14160 857-960): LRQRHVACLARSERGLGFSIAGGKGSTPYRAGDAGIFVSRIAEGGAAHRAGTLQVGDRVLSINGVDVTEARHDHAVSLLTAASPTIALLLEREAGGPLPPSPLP
Sequence of TJP1_2, Q07157 (Q07157 181-274): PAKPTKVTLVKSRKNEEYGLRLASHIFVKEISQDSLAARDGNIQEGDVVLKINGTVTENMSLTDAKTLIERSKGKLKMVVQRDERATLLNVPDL
Sequence of Inadl_6, Q8NI35 (Q8NI35 1058-1167): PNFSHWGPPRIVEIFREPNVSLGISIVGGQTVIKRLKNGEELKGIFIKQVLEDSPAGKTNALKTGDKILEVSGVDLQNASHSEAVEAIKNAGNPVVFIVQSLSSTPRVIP
Sequence of Inadl_3, Q8NI35 (Q8NI35 359-469): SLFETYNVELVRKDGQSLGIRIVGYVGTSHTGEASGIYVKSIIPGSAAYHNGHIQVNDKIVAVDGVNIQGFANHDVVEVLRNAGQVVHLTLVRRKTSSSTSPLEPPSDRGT
Sequence of MAGI3_2, Q5TCQ9 (Q5TCQ9 398-503): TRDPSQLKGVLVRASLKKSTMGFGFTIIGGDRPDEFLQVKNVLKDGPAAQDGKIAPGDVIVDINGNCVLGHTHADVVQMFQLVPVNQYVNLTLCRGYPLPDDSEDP
Sequence of TJP1_3, Q07157 (Q07157 416-512): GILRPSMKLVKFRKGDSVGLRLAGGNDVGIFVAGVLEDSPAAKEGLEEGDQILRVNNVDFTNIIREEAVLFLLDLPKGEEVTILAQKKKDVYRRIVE
Sequence of Inadl_2, Q8NI35 (Q8NI35 238-335): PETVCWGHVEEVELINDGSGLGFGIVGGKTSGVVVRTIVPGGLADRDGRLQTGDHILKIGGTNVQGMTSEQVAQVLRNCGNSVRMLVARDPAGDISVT
Sequence of DLG1_3, Q12959 (Q12959 457-571): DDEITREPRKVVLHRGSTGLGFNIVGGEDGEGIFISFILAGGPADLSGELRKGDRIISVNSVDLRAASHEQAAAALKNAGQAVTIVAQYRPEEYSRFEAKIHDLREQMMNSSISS
Sequence of LNX1_2, Q8TBB1 (Q8TBB1 371-470): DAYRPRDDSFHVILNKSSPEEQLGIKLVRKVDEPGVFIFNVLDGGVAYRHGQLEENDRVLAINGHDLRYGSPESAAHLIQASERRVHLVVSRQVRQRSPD
Sequence of FRMPD2_3, Q68DX3 (Q68DX3 1073-1166): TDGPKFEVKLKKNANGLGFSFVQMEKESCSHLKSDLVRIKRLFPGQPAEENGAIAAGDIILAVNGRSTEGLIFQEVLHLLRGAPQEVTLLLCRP
Sequence of LNX1_3, Q8TBB1 (Q8TBB1 500-596): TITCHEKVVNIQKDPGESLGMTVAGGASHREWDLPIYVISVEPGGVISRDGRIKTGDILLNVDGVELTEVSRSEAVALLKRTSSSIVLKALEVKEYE
Sequence of Inadl_5, Q8NI35 (Q8NI35 673-780): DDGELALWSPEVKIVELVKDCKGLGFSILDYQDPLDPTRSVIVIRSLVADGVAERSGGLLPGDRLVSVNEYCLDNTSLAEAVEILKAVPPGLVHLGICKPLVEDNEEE
Sequence of DLG1_2, Q12959 (Q12959 314-412): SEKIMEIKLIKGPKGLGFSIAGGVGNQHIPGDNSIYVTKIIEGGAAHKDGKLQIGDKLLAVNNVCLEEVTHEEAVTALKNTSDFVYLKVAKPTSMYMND
Sequence of HTRA2, O43464 (O43464 355-458): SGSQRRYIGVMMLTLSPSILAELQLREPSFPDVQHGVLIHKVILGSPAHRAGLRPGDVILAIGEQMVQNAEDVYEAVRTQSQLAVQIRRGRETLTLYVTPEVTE

Binder	pKd (MAGI3_2, Q5TCQ9)	pKd (APBA1_2, Q02410)	pKd (DFNB31_2, Q9P202)	pKd (SCRIB_2, Q14160)	pKd (DLG3_3, Q92796)	pKd (FRMPD2_3, Q68DX3)	pKd (TJP1_2, Q07157)	pKd (NHERF3_4, Q5T2W1)	pKd (Inadl_5, Q8NI35)	pKd (LNX1_3, Q8TBB1)	pKd (LNX1_2, Q8TBB1)	pKd (HTRA2, O43464)	pKd (RADIL, Q96JH8)	pKd (GRIP1_4, Q9Y3R0)	pKd (APBA1_1, Q02410)	pKd (DLG1_3, Q12959)	pKd (SNTG2, Q9NY99)	pKd (Inadl_3, Q8NI35)	pKd (DLG1_2, Q12959)	pKd (GRIP1_7, Q9Y3R0)	further results
B1	3.63	below the threshold	below the threshold	below the threshold	3.64	below the threshold	below the threshold	below the threshold	below the threshold	below the threshold	below the threshold	below the threshold	below the threshold	below the threshold	below the threshold	3.87	3.68	below the threshold	below the threshold	below the threshold	pKd (Inadl_6, Q8NI35): below the threshold; pKd (AHNAK1, Q09666): below the threshold; pKd (SNX27, Q96L92): 3.56; pKd (TJP1_3, Q07157): below the threshold; pKd (PDZD2_2, O15018): 4.18; pKd (Inadl_2, Q8NI35): below the threshold; pKd (MPP7, Q5T2T1): below the threshold
B2	3.77	3.8	below the threshold	4.43	3.62	3.54	below the threshold	below the threshold	below the threshold	below the threshold	below the threshold	below the threshold	below the threshold	below the threshold	below the threshold	3.65	4.04	below the threshold	4.3	below the threshold	pKd (Inadl_6, Q8NI35): below the threshold; pKd (AHNAK1, Q09666): below the threshold; pKd (SNX27, Q96L92): 5.45; pKd (TJP1_3, Q07157): below the threshold; pKd (PDZD2_2, O15018): 5.35; pKd (Inadl_2, Q8NI35): below the threshold; pKd (MPP7, Q5T2T1): below the threshold
B3	below the threshold	4.35	below the threshold	below the threshold	below the threshold	below the threshold	below the threshold	below the threshold	below the threshold	below the threshold	below the threshold	below the threshold	4.08	below the threshold	below the threshold	below the threshold	below the threshold	below the threshold	below the threshold	below the threshold	pKd (Inadl_6, Q8NI35): below the threshold; pKd (AHNAK1, Q09666): below the threshold; pKd (SNX27, Q96L92): 3.62; pKd (TJP1_3, Q07157): below the threshold; pKd (PDZD2_2, O15018): 5.04; pKd (Inadl_2, Q8NI35): below the threshold; pKd (MPP7, Q5T2T1): below the threshold
B4	below the threshold	below the threshold	below the threshold	4.05	below the threshold	below the threshold	below the threshold	below the threshold	below the threshold	below the threshold	below the threshold	below the threshold	below the threshold	below the threshold	below the threshold	below the threshold	4.08	below the threshold	3.88	below the threshold	pKd (Inadl_6, Q8NI35): 3.76; pKd (AHNAK1, Q09666): below the threshold; pKd (SNX27, Q96L92): 5.22; pKd (TJP1_3, Q07157): below the threshold; pKd (PDZD2_2, O15018): 3.72; pKd (Inadl_2, Q8NI35): below the threshold; pKd (MPP7, Q5T2T1): below the threshold
B5	3.6	3.63	3.75	below the threshold	3.9	3.55	below the threshold	below the threshold	below the threshold	below the threshold	below the threshold	below the threshold	3.61	below the threshold	below the threshold	3.76	3.88	below the threshold	4.01	below the threshold	pKd (Inadl_6, Q8NI35): below the threshold; pKd (AHNAK1, Q09666): below the threshold; pKd (SNX27, Q96L92): 4.72; pKd (TJP1_3, Q07157): below the threshold; pKd (PDZD2_2, O15018): 5.23; pKd (Inadl_2, Q8NI35): below the threshold; pKd (MPP7, Q5T2T1): below the threshold
